Laboratory results from paper PMC7939381, “MMP activation–associated aminopeptidase N reveals a bivalent 14-3-3 binding motif” (The Journal of Biological Chemistry, 2021).

Experiments:
[1] = molecular target: fluorescently labeled peptide 7, APN 36–73 pSer43 (human) (UniProt P15144); test: fluorescence polarisation; direct binding: dilution series of 14-3-3 protein added to FITC-labeled peptide (30 nM stock, 5 µl in 15 µl); 10 mM HEPES pH 7.4, 150 mM NaCl, 2 mM DTT, 0.01% Tween 20; 60 min at room temperature, read at 25 °C; four-parameter fit
Chain of fluorescently labeled peptide 7, APN 36–73 pSer43 (human) (P15144 36-73): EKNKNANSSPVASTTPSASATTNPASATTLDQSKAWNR

[2] = molecular target: fluorescently labeled peptide 11, APN 36–73 pSer43 pThr63 (human) (UniProt P15144); test: as above
Chain of fluorescently labeled peptide 11, APN 36–73 pSer43 pThr63 (human) (P15144 36-73): as above

[3] = molecular target: peptide 7, APN 36–73 pSer43, as used in ITC (human) (UniProt P15144); test: ITC; 14-3-3η (500 µM; 250 µM for peptide 11) titrated into peptide (50 µM; 12.5 µM for peptide 11), 18 injections; 50 mM HEPES pH 7.4, 250 mM NaCl, 20 mM MgCl2; 25 °C
Chain of peptide 7, APN 36–73 pSer43, as used in ITC (human) (P15144 36-73): as above

[4] = molecular target: peptide 11, APN 36–73 pSer43 pThr63, as used in ITC and co-crystallisation (human) (UniProt P15144); test: as above
Chain of peptide 11, APN 36–73 pSer43 pThr63, as used in ITC and co-crystallisation (human) (P15144 36-73): as above

14-3-3β/α = 14-3-3β/α (UniProt P31946); test: direct fluorescence polarisation titration; conditions: reference: peptide 7 (pS43 only)
14-3-3σ (stratifin, SFN) = 14-3-3σ (stratifin, SFN) (UniProt P31947); test: direct fluorescence polarisation titration; conditions: reference: peptide 7 (pS43 only)
14-3-3η = 14-3-3η (UniProt Q04917); test: direct fluorescence polarisation titration; conditions: reference: peptide 7 (pS43 only)

14-3-3η, full length, N-terminally His6-tagged (from UniProt Q04917 1-246) (natural protein)
Kd [1]: 24 µM | Kd [2]: 0.046 µM | Kd [3]: 40.7 µM | stoichiometry N [3]: 1.13 | Kd [4]: 0.14 µM | stoichiometry N [4]: 0.58

Aminopeptidase N (APN, CD13) 36-73 (from UniProt P15144) peptide 10 (pS43 pS61)
binding against the reference (14-3-3β/α; sites S61): stronger | binding against the reference (14-3-3σ (stratifin, SFN); sites S61): stronger | binding against the reference (14-3-3η; sites S61): stronger

Aminopeptidase N (APN, CD13) 36-73 (from UniProt P15144) peptide 11 (pS43 pT63)
binding against the reference (14-3-3β/α; sites T63): stronger | binding against the reference (14-3-3σ (stratifin, SFN); sites T63): stronger

Aminopeptidase N (APN, CD13) 36-73 (from UniProt P15144) peptide 12 (pS43 pT64)
binding against the reference (14-3-3β/α; sites T64): stronger | binding against the reference (14-3-3σ (stratifin, SFN); sites T64): stronger | binding against the reference (14-3-3η; sites T64): stronger
